Assay results from US20050266469A1, “Alternatively spliced isoforms of checkpoint kinase 1 (CHK1)” (priority 2004, published 2005).

T1: CHK1sv1 (Homo sapiens, UniProt O14757)
T1 construct: made in house; host or cells: SF9 insect cells (baculovirus, pVL1393 transfer vector)
T1 sequence (O14757 with tags, fused parts or gaps): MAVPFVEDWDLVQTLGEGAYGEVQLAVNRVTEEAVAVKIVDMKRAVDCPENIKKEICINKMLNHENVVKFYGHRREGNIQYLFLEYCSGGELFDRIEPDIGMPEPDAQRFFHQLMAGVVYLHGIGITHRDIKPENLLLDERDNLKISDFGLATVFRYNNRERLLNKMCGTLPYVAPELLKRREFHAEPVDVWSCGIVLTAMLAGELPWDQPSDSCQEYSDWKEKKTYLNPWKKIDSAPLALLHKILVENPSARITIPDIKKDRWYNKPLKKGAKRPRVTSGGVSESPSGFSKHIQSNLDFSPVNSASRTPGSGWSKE

T2: reference CHK1 (Homo sapiens, UniProt O14757)
T2 sequence (O14757 1-476): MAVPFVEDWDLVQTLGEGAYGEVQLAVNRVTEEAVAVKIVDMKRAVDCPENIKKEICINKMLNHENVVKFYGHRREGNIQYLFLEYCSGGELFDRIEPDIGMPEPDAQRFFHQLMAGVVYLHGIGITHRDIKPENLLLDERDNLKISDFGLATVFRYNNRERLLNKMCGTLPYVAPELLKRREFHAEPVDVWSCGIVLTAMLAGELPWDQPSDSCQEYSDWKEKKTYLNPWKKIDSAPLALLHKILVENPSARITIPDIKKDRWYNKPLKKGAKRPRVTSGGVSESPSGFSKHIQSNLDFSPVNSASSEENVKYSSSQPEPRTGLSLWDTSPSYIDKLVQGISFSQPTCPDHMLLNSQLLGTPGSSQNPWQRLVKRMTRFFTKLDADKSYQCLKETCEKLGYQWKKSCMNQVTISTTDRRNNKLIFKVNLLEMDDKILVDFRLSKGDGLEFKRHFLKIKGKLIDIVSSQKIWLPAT

B1: CHK1sv1: splice variant isoform of human CHK1 protein, exon 9 spliced to exon 11, expressed in SF9 insect cells (protein, listed as Homo sapiens)
chain: T1 sequence (O14757 with tags, fused parts or gaps)
B2: CHK1: human checkpoint kinase 1 reference protein (protein, UniProt O14757 1-476, looked up)
Serine/threonine-protein …: T2 sequence (O14757 1-476)

Tests used:
CHK1sv1 = molecular target: T1, CHK1sv1; experiment: CHK1sv1 kinase assay (Homogenous Time-Resolved Fluorescence, synthetic peptide substrate); format: biochemical; conditions: phospho-peptide product per microgram of CHK1sv1; ATP and CDC25C peptide substrate at saturating concentrations
Description: CHK1sv1 activity was assayed in vitro using a synthetic peptide substrate. The phophopeptide product was quantitated using a Homogenous Time-Resolved Fluorescence assay system (Park et al., 1999, Anal. Biochem. 269:94-104). The reaction mixture contained 40 mM HEPES, pH 7.3; 100 mM NaCl; 10 mM MgCl2; 2 mM dithiothreitol; 0.1% BSA; 0.1 mM ATP; 0.5 μM peptide substrate; and 0.1 nM CHK1sv1 enzyme in a final volume of 40 μl. […] The kinase reaction was incubated for 30 minutes at 22° C., and then terminated with 60 μl Stop/Detection Buffer (40 mM HEPES, pH 7.3; 10 mM EDTA; 0.125% Triton X-100; 1.25% BSA; 250 nM PhycoLink Streptavidin-Allophycocyanin (APC) Conjugate (Prozyme, San Leandro, Calif.); and […] Europium-chelate labeled anti-phosphotyrosine antibody (PY20, Perkin Elmer, Boston, Mass.)). The reaction was allowed to equilibrate for 2 hours at 22° C., and relative fluorescent units were read on a Discovery plate reader (Packard Biosciences). ATP Km was determined by varying ATP concentration from 0.003 to 3 mM in the reaction described above and determining the relative enzymatic rates. […] CHK1sv1 Vmax was calculated by determining the amount of phospho-peptide product formed per microgram of CHKsv1 when both ATP and CDC25C peptide substrate are at saturating concentrations.

reference CHK1 = molecular target: T2, reference CHK1; conditions: previously described (O'Neill et al., 2002; Jackson et al., 2000); cited from earlier work

Molecule | Vmax (CHK1sv1) [nmol/min/µg] | Vmax (reference CHK1) [nmol/min/µg]
B1 | 36 | –
B2 | – | 0.6
